Source: the Human Domainome abundance scans (Beltran et al. 2025)
± gives the uncertainty stated by the source.

B1: Bromodomain adjacent to zinc finger domain protein 2B, residues 1927 to 1982; numbered along this chain, Q9UIF8 (parent)
chain: KSIMKVYCQICRKGDNEELLLLCDGCDKGCHTYCHRPKITTIPDGDWFCPACIAKA

Variants of: B1
Assay: abundance fitness (aPCA) (normalised: wild type 0, dead -1); higher = more abundant; growth selection in yeast, the domain comes from the species named
Details: Homo sapiens

Point of comparison: KSIMKVYCQICRKGDNEELLLLCDGCDKGCHTYCHRPKCTTIPDGDWFCPACIAKA [I39C], abundance fitness 0.011 ± 0.12. Against it:
- KSIMKVYCQICRKGDNEELLLLCDGCDKGCHTYCHRPKIATIPDGDWFCPACIAKA [T40A] — within error, -0.164 ± 0.1
- KSIMKVYCQICRKGDNEELLLLCDGCDKGCHTYCHRPKIGTIPDGDWFCPACIAKA [T40G] — within error, -0.106 ± 0.079
- KSIMKVYCQICRKGDNEELLLLCDGCDKGCHTYCHRPKILTIPDGDWFCPACIAKA [T40L] — within error, -0.049 ± 0.083
- KSIMKVYCQICRKGDNEELLLLCDGCDKGCHTYCHRPKIKTIPDGDWFCPACIAKA [T40K] — within error, 0.072 ± 0.15
- KSIMKVYCQICRKGDNEELLLLCDGCDKGCHTYCHRPKIDTIPDGDWFCPACIAKA [T40D] — within error, -0.095 ± 0.21
- KSIMKVYCQICRKGDNEELLLLCDGCDKGCHTYCHRPKIHTIPDGDWFCPACIAKA [T40H] — within error, -0.128 ± 0.14
- KSIMKVYCQICRKGDNEELLLLCDGCDKGCHTYCHRPKIITIPDGDWFCPACIAKA [T40I] — within error, -0.123 ± 0.13
- KSIMKVYCQICRKGDNEELLLLCDGCDKGCHTYCHRPKIETIPDGDWFCPACIAKA [T40E] — within error, -0.026 ± 0.12
- KSIMKVYCQICRKGDNEELLLLCDGCDKGCHTYCHRPKIFTIPDGDWFCPACIAKA [T40F] — within error, -0.015 ± 0.12
- KSIMKVYCQICRKGDNEELLLLCDGCDKGCHTYCHRPHITTIPDGDWFCPACIAKA [K38H] — within error, -0.153 ± 0.1
- KSIMKVYCQICRKGDNEELLLLCDGCDKGCHTYCHRPSITTIPDGDWFCPACIAKA [K38S] — within error, -0.059 ± 0.072
- KSIMKVYCQICRKGDNEELLLLCDGCDKGCHTYCHRPQITTIPDGDWFCPACIAKA [K38Q] — within error, -0.219 ± 0.13
- KSIMKVYCQICRKGDNEELLLLCDGCDKGCHTYCHRPLITTIPDGDWFCPACIAKA [K38L] — within error, 0.015 ± 0.077
- KSIMKVYCQICRKGDNEELLLLCDGCDKGCHTYCHRPCITTIPDGDWFCPACIAKA [K38C] — within error, -0.128 ± 0.1
- KSIMKVYCQICRKGDNEELLLLCDGCDKGCHTYCHRPNITTIPDGDWFCPACIAKA [K38N] — within error, -0.139 ± 0.12
- KSIMKVYCQICRKGDNEELLLLCDGCDKGCHTYCHRPWITTIPDGDWFCPACIAKA [K38W] — lower, -0.216 ± 0.098
- KSIMKVYCQICRKGDNEELLLLCDGCDKGCHTYCHRPTITTIPDGDWFCPACIAKA [K38T] — within error, -0.016 ± 0.092
- KSIMKVYCQICRKGDNEELLLLCDGCDKGCHTYCHRPYITTIPDGDWFCPACIAKA [K38Y] — within error, -0.148 ± 0.12
- KSIMKVYCQICRKGDNEELLLLCDGCDKGCHTYCHRPRITTIPDGDWFCPACIAKA [K38R] — within error, -0.122 ± 0.074
- KSIMKVYCQICRKGDNEELLLLCDGCDKGCHTYCHRPFITTIPDGDWFCPACIAKA [K38F] — within error, -0.147 ± 0.16
- KSIMKVYCQICRKGDNEELLLLCDGCDKGCHTYCHRPIITTIPDGDWFCPACIAKA [K38I] — within error, -0.071 ± 0.12
- KSIMKVYCQICRKGDNEELLLLCDGCDKGCHTYCHRPVITTIPDGDWFCPACIAKA [K38V] — within error, -0.104 ± 0.088
- KSIMKVYCQICRKGDNEELLLLCDGCDKGCHTYCHRPMITTIPDGDWFCPACIAKA [K38M] — within error, -0.09 ± 0.11
- KSIMKVYCQICRKGDNEELLLLCDGCDKGCHTYCHRPPITTIPDGDWFCPACIAKA [K38P] — within error, -0.122 ± 0.092
- KSIMKVYCQICRKGDNEELLLLCDGCDKGCHTYCHRPEITTIPDGDWFCPACIAKA [K38E] — within error, -0.186 ± 0.11
- KSIMKVYCQICRKGDNEELLLLCDGCDKGCHTYCHRPKPTTIPDGDWFCPACIAKA [I39P] — lower, -0.266 ± 0.12
- KSIMKVYCQICRKGDNEELLLLCDGCDKGCHTYCHRPKNTTIPDGDWFCPACIAKA [I39N] — within error, 0.002 ± 0.18
- KSIMKVYCQICRKGDNEELLLLCDGCDKGCHTYCHRPKSTTIPDGDWFCPACIAKA [I39S] — within error, -0.087 ± 0.081
- KSIMKVYCQICRKGDNEELLLLCDGCDKGCHTYCHRPKDTTIPDGDWFCPACIAKA [I39D] — within error, -0.194 ± 0.13
- KSIMKVYCQICRKGDNEELLLLCDGCDKGCHTYCHRPKVTTIPDGDWFCPACIAKA [I39V] — within error, -0.031 ± 0.08
- KSIMKVYCQICRKGDNEELLLLCDGCDKGCHTYCHRPKFTTIPDGDWFCPACIAKA [I39F] — within error, -0.164 ± 0.15
- KSIMKVYCQICRKGDNEELLLLCDGCDKGCHTYCHRPKKTTIPDGDWFCPACIAKA [I39K] — within error, -0.111 ± 0.1
- KSIMKVYCQICRKGDNEELLLLCDGCDKGCHTYCHRPKWTTIPDGDWFCPACIAKA [I39W] — within error, -0.137 ± 0.095
- KSIMKVYCQICRKGDNEELLLLCDGCDKGCHTYCHRPKHTTIPDGDWFCPACIAKA [I39H] — within error, -0.189 ± 0.18
- KSIMKVYCQICRKGDNEELLLLCDGCDKGCHTYCHRPKGTTIPDGDWFCPACIAKA [I39G] — within error, -0.1 ± 0.063
- KSIMKVYCQICRKGDNEELLLLCDGCDKGCHTYCHRPKQTTIPDGDWFCPACIAKA [I39Q] — within error, -0.059 ± 0.095
- KSIMKVYCQICRKGDNEELLLLCDGCDKGCHTYCHRPKATTIPDGDWFCPACIAKA [I39A] — within error, -0.068 ± 0.084
- KSIMKVYCQICRKGDNEELLLLCDGCDKGCHTYCHRPKETTIPDGDWFCPACIAKA [I39E] — within error, 0.04 ± 0.099
- KSIMKVYCQICRKGDNEELLLLCDGCDKGCHTYCHRPKTTTIPDGDWFCPACIAKA [I39T] — within error, -0.124 ± 0.12
- KSIMKVYCQICRKGDNEELLLLCDGCDKGCHTYCHRPKMTTIPDGDWFCPACIAKA [I39M] — within error, 0.039 ± 0.1
- KSIMKVYCQICRKGDNEELLLLCDGCDKGCHTYCHPPKITTIPDGDWFCPACIAKA [R36P] — within error, -0.078 ± 0.1
- KSIMKVYCQICRKGDNEELLLLCDGCDKGCHTYCHSPKITTIPDGDWFCPACIAKA [R36S] — within error, 0.065 ± 0.074
- KSIMKVYCQICRKGDNEELLLLCDGCDKGCHTYCHWPKITTIPDGDWFCPACIAKA [R36W] — within error, -0.004 ± 0.12
- KSIMKVYCQICRKGDNEELLLLCDGCDKGCHTYCHGPKITTIPDGDWFCPACIAKA [R36G] — within error, -0.015 ± 0.068
- KSIMKVYCQICRKGDNEELLLLCDGCDKGCHTYCHAPKITTIPDGDWFCPACIAKA [R36A] — within error, -0.007 ± 0.074
- KSIMKVYCQICRKGDNEELLLLCDGCDKGCHTYCHHPKITTIPDGDWFCPACIAKA [R36H] — within error, 0.021 ± 0.14
